# Experimental data: patent US20230331827A1, “POTASSIUM CHANNEL INHIBITORS” (priority 2017, published 2023)
# Where a chain is given by its changes, count along the chain named.
# B1: KB_A07_HsTx1 (antibody, V domains shown)
# VH: EVQLVESGGGLVRPGGSLRLSCAASGFTFSSYAMSWVRQAPGKGLEWVSAISGSGGSTYYADSVKGRFTISRDNTKNSLYLQMTSLRADDTAFYYCVKDFGPGYGTGWFDYWGPGTLVTVSS
# VL: DIQMTQSPSSLSASVGDRVTITCRASQSISSYLNWYQQKPGKAPKLLIYAAGVASCRTPKDCADPCRKETGCPYGKCMNRKCKCNRCSRSGVPSRFSGSGSGTDFTLTISSLQPEDFATYYCQQGASPPYTFGQGTKVEIKR
# B2: KB_A12_ADWX1: ADWX-1 in VL CDR2 of KB_A12, IgG (antibody, V domains shown)
# VH: B1 VH
# VL: QSVLTQPPSVSEAPRQRVTITCSGSSSNIGNNAVNWYQQLPGKAPKLLIYAAGRVGINVKCKHSRQCLKPCKDAGMRFGKCTNGKCHCTPKANSGVSDRFSAAKSGTSASLAINGLRSEDEADYYCAAWDDSLNGYVFGTGTKLTVLG
# B3: F01: KnotBody with alternative 5-3 framing of EETI-II, VL CDR2 (protein)
# chain: DIQMTQSPSSLSASVGDRVTITCRASQSISSYLNWYQQKPGKAPKLLIDAAGECGPNGFCGSGSDGGVCPRINMRCKQDSDCLAGCGRDSGVPSRFSGSGSGTDFTLTISSLQPEDFATYYCQQSYSTPWTFGQGTKVEIKRT
# modifications: F01 (101798)
# notes: KnotBody with alternative 5-3 framing of EETI-II, VL CDR2
# B4: E03: KnotBody with alternative 5-3 framing of EETI-II, VL CDR2 (protein)
# chain: QSVLTQPPSVSEAPRQRVTITCSGSSSNIGNNAVNWYQQLPGKAPKLLIYAAGGCGPNGFCGSGSDGGVCPRILMRCKQDSDCLAGCGRNSGIPERFSGSKSGHTATLTISRVEAGDEADYYCQVWDSSSDHVLFGGGTKLTVLGQP
# modifications: E03 (82495)
# notes: as for B3
# B5: C09: KnotBody with alternative 5-3 framing of EETI-II, VL CDR1 (protein)
# chain: QSVLTQPPSVSEAPRQRVTITCGGKRCGPNGFCGSGSDGGVCPRILMRCKQDSDCLAGCTSNWYQQKPGQAPVLVVQDDSVRPSGIPERFSGSNSGNTATLTISRVEAGDGADYYCQVWDISSDLGVFGGGTKLTVLGQP
# modifications: C09 (9820)
# notes: KnotBody with alternative 5-3 framing of EETI-II, VL CDR1
# B6: F07: KnotBody with alternative 5-3 framing of EETI-II, VL CDR2 (protein)
# chain: QSVLTQPPSVSEAPRQRVTITCSGSSSNIGNNAVNWYQQLPGKAPKLLIYAAGGCGPNGFCGSGSDGGVCPRILMRCKQDSDCLAGCGGQSGVPDRFSGSKSGTSASLAISRLQSEDEADYYCAAWDDSLNAYVFGTGTKVTVLGQP
# modifications: F07 (72824)
# notes: as for B3
# B7: E09: KnotBody with alternative 5-3 framing of EETI-II, VL CDR2 (protein)
# chain: B6 chain with G89T, V93I, D95E, R112G, Q114R, N131R, K140Q, V141L
# modifications: E09 (70274)
# notes: as for B3
# B8: E05: KnotBody with alternative 5-3 framing of EETI-II, VL CDR2 (protein)
# chain: B6 chain with G89A, V93I, D95E, R112G, D120H, A132G
# modifications: E05 (118631)
# notes: as for B3
# B9: E08: KnotBody with alternative 5-3 framing of EETI-II, VL CDR2 (protein)
# chain: B6 chain with G89I, V93I, D95E, R112G, Q114R, S129N, N131S, A132G, V141L
# modifications: E08 (121047)
# notes: as for B3
# B10: E01: KnotBody with alternative 5-3 framing of EETI-II, VL CDR2 (protein)
# chain: B6 chain with G89I, Q90H, P94S, G99D, R112G, A132G, V141L
# modifications: E01 (127988)
# notes: as for B3
# B11: F03: KnotBody with alternative 5-3 framing of EETI-II, VL CDR2 (protein)
# chain: QSVLTQPPSVSEAPRQRVTITCSGSSSNIGNNAVNWYQQLPGRAPKLLIYAAGGCGPNGFCGSGGDGGVCPRILMRCKQDSDCLAGCGAHSGIPERFSGSKSGTSASLAISGLRSEDEADYYCAAWDDSLNGWVFGGGTKVTVLGQP
# modifications: F03 (67972)
# notes: as for B3
# Biological target: T1, human Kv1.3 (huKv1.3) (Homo sapiens, UniProt P22001)
# T1 construct: host or cells: CHO
# T1 sequence (P22001 whole entry): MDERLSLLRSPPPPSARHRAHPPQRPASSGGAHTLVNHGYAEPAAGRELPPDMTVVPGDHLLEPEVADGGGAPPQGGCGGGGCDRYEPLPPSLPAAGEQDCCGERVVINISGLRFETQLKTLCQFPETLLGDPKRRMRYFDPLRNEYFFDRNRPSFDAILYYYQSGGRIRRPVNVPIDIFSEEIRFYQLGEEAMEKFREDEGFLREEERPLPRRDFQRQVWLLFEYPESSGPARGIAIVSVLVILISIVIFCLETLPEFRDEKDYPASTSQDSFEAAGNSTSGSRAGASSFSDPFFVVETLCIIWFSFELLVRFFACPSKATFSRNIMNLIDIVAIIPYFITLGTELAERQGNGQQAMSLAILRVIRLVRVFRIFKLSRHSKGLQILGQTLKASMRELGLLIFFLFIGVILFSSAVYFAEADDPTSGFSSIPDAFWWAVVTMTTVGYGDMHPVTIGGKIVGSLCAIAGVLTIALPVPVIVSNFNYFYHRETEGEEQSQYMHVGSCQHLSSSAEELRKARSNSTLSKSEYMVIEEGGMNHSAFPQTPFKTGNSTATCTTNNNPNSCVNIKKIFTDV
# Experiment: QPatch automated patch-clamp, CHO cells stably expressing human Kv1.3 (Examples 19-21)
# Assay type: cell-based
# Conditions: huKv1.3, four-point curves of FIG. 32, Table E19; read-out: IC50
# Description: The effect of these KnotBodies on cells expressing human Kv1.3 (huKv1.3) channel was assessed using the QPatch automated patch-clamp platform (Sophion, Ballerup, Denmark). For the testing of Kv1.3 ion channel currents, CHO cells stably expressing human Kv1.3 (GenBank accession number NM_002232.2; cell line catalogue number CT6133, Charles River Discovery, Cleveland, USA) were subjected to a QPatch electrophysiology assay in the presence or absence of the KnotBody fusions or the antibody isotypes (negative controls). Internal and external physiological solutions were freshly prepared prior to the assay. The extracellular solution contained 145 mM NaCl, 4 mM KC1, 2 mM CaC12, 1 mM MgC12, 10 mM HEPES and 10 mM glucose; the pH was adjusted to 7.4 with NaOH; the osmolarity was ~ 305 mOsm/L. The intracellular solution contained: KF (120 mM), KC1 (20 mM), HEPES (10 mM) EGTA (10 mM); the pH was adjusted to 7.2 with KOH; osmolarity was ~ 300 mOsm/L.
# (§1) A series of depolarising voltage (channel activating) pulses were used to monitor the channel currents upon adding control (extracellular solution) to define a control baseline of current activity. To these measured control currents four, ascending concentrations of KnotBodies (including KB_A12_ShK and KB_A12_KTX as previously described in Example 8) or parental antibody isotypes (control molecules) were applied to the external bathing solution. KnotBodies KB_A12 and KB_A07 (EETI-II fusions) were used as isotype controls for the testing. From a holding voltage of -80 mV a depolarising, activating voltage pulses of +30 mV were applied for 300 ms, every 10 seconds. The elicited, maximum outward current values measured during the activating step for each solution exchange period, averaged (n = 3 - 6 for each concentration applied) and plotted as concentration-response curves (see FIG. 32). From these concentration-response curves IC50 values were calculated.
# For the testing of Kv1.1 and Kv1.3, CHO-S expressing huKv1.1 (described above) or CHO cells stably expressing huKv1.3 (Charles River Lab) were analysed using the QPatch electrophysiology assay in the presence or absence of the KnotBody fusions. Internal and external physiological solutions were freshly prepared prior to the assay. The extracellular solution contained 145 mM NaCl, 4 mM KC1, 2 mM CaC12, 1 mM MgC12, 10 mM HEPES and 10 mM glucose; the pH was adjusted to 7.4 with NaOH; the osmolarity was ~ 305 mOsm/L. The intracellular solution contained: KF (120 mM), KC1 (20 mM), HEPES (10 mM) EGTA (10 mM); the pH was adjusted to 7.2 with KOH; osmolarity was ~ 300 mOsm/L.
# as §1, with “(including previously described” for “(including”, “KB_A12_KTX” for “KB_A12_KTX as previously”, “[…]” for “+30 mV”, “33).” for “32).”, “calculated (see Table E20).” for “calculated.”
# For the testing of Kv1.1 and Kv1.3, CHO-S expressing huKv1.1 (see Example 20 and below) or CHO cells stably expressing huKv1.3 (Charles River Lab) were analysed using the QPatch electrophysiology assay in the presence or absence of the KnotBody fusions - see details in Examples 19 and 20.
row,Molecule,IC50
1,B1,4.7 nM
2,B2,270 nM

# System: trypsin
# Experiment: Phage TRF binding assay on immobilised biotinylated trypsin (monoclonal phage ELISA)
# Conditions: EETI-II in 5-3 frame, value in brackets after clone name
# Description: Phage display technology facilitates isolation of binders to any given target from large combinatorial repertoires based on proteins and peptides that can be presented on the surface of filamentous phage^105. In order to isolate functional knottin-antibody fusions from the KnotBody libraries multiple rounds of phage display selections on trypsin (cognate antigen for the EETI-II donor) were carried out. Phage particles were prepared by rescuing KnotBody libraries using trypsin cleavable helper phage ^102,106Two rounds of phage display selections were performed on 10 µg/ml biotinylated trypsin immobilised on Streptavidin (for Round-1) or Neutravidin (for round-2) coated Maxisorp™ immunotubes (Thermo Scientific, Cat No. 444202). In both rounds of selection, phage libraries were pre-incubated with streptavidin coated paramagnetic beads (Thermo Fisher Scientific, Cat. No. 11205D). These beads were removed prior to the addition the phage to the antigen tubes to limit the streptavidin binders entering the selection. Polyclonal phage preparations from round-2 selection outputs were analysed for trypsin binding using a time resolved fluorescence (TRF) binding assay. In this assay, polyclonal phage binding to biotinylated trypsin immobilised on neutravidin (Thermo Fisher Scientific, Cat. No 31000) coated Maxisorp™ plates (Thermo Scientific, Cat. No. 437111) was detected using a mouse anti-M13 antibody (GE Healthcare, Cat. No. 27-9420-01) followed by europium conjugated anti-mouse antibody (Perkin Elmer, Cat. No. AD0124).
# In order to identify monoclonal KnotBodies with desired binding characteristics, 94 individual clones derived from 2 rounds of selection using EETI-II CDR1 or CDR2 libraries were picked into 96 well culture plates and phage were prepared from each clone. Methods for screening by monoclonal phage ELISA are known in the art^107. […] Clones with >3x binding signal above background were picked as positive clones and sequenced to identify unique clones. 14 and 42 unique binders were identified from EETI-II CDR1 and EETI-II CDR2 libraries respectively (Table 1). 18 binders from the EETI-II CDR2 library and 3 binders from the EETI-II-CDR1 library were chosen for further characterisation based on their VL and linker sequence diversity. These binders were assigned new clone identification numbers (Table 2).
# The trypsin binding capability of EETI-II is attributed to proline (Pro3) and arginine (Arg4) residues present in its loop1 (GCPRILMRC; SEQ ID NO: 68). […] Monoclonal phage was prepared from the 21 selected clones and their mutant equivalents. […] Replacement of the trypsin-binding residues of EETI-II abolished the ability of all KnotBody clones to bind to trypsin (Table 3). In order to confirm that the loss of trypsin binding was not due to reduced expression or display of pIII fusion phage was prepared from 11 (randomly chosen) KnotBodies and their GlyAla variants were analysed on a western blot using an antibody which recognises the product of gene 3 (pIII) using an anti-pIII antibody (MoBiTec GmbH) (FIG. 6).
# Bovine antibodies have been described with natural ultra-long VH CDR3s containing a solvent exposed double stranded antiparallel sheet approximately 20 A° in length (referred to as the stalk) presenting a folded domain stabilised by 3 disulfide bonds (referred to as the Knob)^10. Zhang and colleagues have shown that the Knob domains of these cow ultra-long VH CDR3 antibodies (ULVC-Ab) can be replaced with other folded proteins such as erythropoietin^13. In this example, we assess the ability of a cow ULVC-Ab to present functional knottin fusions on phage in comparison with a KnotBody. In order to create a Knottin-cow UCLA fusion, the sequence between the first and the last cysteines of the knob region of the Cow ULVC-Ab BLV1H12 was replaced with the sequence of the trypsin binding knottin; EETI-II (EETI-II cow ULVC-Ab). A gene fragment encoding this construct was synthesised (Integrated DNA technologies, Table 21). […]
row,Molecule,ELISA signal from monoclonal phage ELISA
1,B3,F01
2,B4,E03 (82495)
3,B5,C09 (9820)
4,B6,F07 (72824)
5,B7,E09 (70274)
6,B8,E05 (118631)
7,B9,E08 (121047)
8,B10,E01 (127988)
9,B11,F03 (67972)
